Experimental data reported in patent US20050058747.

Columns and labels:
[1] = biological target: T1, soybean Kunitz trypsin inhibitor, P01070
T1 chain: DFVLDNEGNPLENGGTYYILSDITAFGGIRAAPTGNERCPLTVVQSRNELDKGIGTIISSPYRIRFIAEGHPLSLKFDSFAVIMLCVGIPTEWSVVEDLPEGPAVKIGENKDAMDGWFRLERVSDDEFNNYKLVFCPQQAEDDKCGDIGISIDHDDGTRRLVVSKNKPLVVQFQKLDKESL

[2] = biological target: Soybean agglutinin (SBA), P05046
[3] = biological target: T2, soybean Bowman-Birk inhibitor, P01055
T2 chain: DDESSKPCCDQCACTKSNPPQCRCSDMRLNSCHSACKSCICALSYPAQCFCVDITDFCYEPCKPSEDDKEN

Sequence of Soybean agglutinin (SBA), P05046 (P05046 33-285): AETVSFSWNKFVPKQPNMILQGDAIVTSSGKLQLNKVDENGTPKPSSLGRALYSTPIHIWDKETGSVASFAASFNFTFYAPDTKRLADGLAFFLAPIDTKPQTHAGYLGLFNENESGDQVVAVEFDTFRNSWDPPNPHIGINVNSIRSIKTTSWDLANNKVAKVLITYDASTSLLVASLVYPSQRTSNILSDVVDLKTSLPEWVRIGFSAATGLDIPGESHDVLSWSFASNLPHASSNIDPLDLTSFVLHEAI

B1: protease of the invention having amino acids 1-188 of SEQ ID NO: 2 (protease derived from Nocardiopsis dassonvillei subsp. dassonvillei DSM 43235) (protein)
chain: ADIIGGLAYYMGGRCSVGFAATNSAGQPGFVTAGHCGTVGTGVTIGNGTGTFQNSVFPGNDAAFVRGTSNFTLTNLVSRYNSGGYQSVTGTSQAPAGSAVCRSGSTTGWHCGTIQARNQTVRYPQGTVYSLTRTNVCAEPGDSGGSFISGSQAQGVTSGGSGNCSVGGTTYYQEVTPMINSWGVRIRT
In the case of B1, the Percentage degradation of isolated soy proteins [1] is reported as 97%, the Percentage degradation of isolated soy proteins (Soybean glycinin) is reported as 100% and the Percentage degradation of isolated soy proteins [2] is reported as 95%. It also gave a Percentage degradation of isolated soy proteins [3] of 81% and a Percentage degradation of isolated soy proteins (Soybean beta-conglycinin) of 100%.
